Experimental data published in paper PMC2810632 (Neuron, 2009).

Target: the molecule itself
Assay: non-reducing SDS-PAGE of immunoprecipitates

B1: Rat p75 neurotrophin receptor (p75^NTR), wild type, N-terminal HA tag (receptor, UniProt P07174 30-425, looked up)
chain: KETCSTGLYTHSGECCKACNLGEGVAQPCGANQTVCEPCLDNVTFSDVVSATEPCKPCTECLGLQSMSAPCVEADDAVCRCAYGYYQDEETGHCEACSVCEVGSGLVFSCQDKQNTVCEECPEGTYSDEANHVDPCLPCTVCEDTERQLRECTPWADAECEEIPGRWIPRSTPPEGSDSTAPSTQEPEVPPEQDLVPSTVADMVTTVMGSSQPVVTRGTTDNLIPVYCSILAAVVVGLVAYIAFKRWNSCKQNKQGANSRPVNQTPPPEGEKLHSDSGISVDSQSLHDQQTHTQTASGQALKGDGNLYSSLPLTKREEVEKLLNGDTWRHLAGELGYQPEHIDSFTHEACPVRALLASWGAQDSATLDALLAALRRIQRADIVESLCSESTATSPV
- stoichiometry N: 2

B2: Endogenous rat p75^NTR (receptor, UniProt P07174 30-425, looked up)
chain: B1 chain
- stoichiometry N: 2
